Literature values, collected in PMC8145179.

Target: Cys215 (UniProt position 215, PVVVHCSAGIG)
Conditions: apo (ligand-free) enzyme

**Q.** Which pKa does the source give for “Protein tyrosine phosphatase 1B (PTP1B) (Homo sapiens (inferred; not stated in the article))” here?
**A.** The pKa was 5.4.
